Laboratory results as given in patent US20150344540A1, “NOVEL GLP-1 RECEPTOR AGONISTS WITH CHOLESTEROL EFFLUX ACTIVITY” (NOVO NORDISK A/S, priority 2012, published 2015).
Where no end group is shown, it is not given here. [ ]: non-standard residue; d: D form. Aib = CC(C)(N)C(=O)O

B1: [Glu23,Val25,Glu34,Lys35,Val36,Lys37]-GLP-1-(7-37)-peptidyl-Glu-Phe-Leu amide (peptide)
peptide: HAEGTFTSDVSSYLEGEAVKEFIAWLVEKVKEFL-NH2
B2: [Aib8,Glu23,Val25,Val29,Gln30,Glu34,Lys35,Aib36,Lys37]-GLP-1-(7-37)-peptidyl-Glu-Phe-Leu amide (peptide)
peptide: H[Aib]EGTFTSDVSSYLEGEAVKEFVQWLVEK[Aib]KEFL-NH2
modifications: N-terminus assumed
SMILES: CC(C)C[C@H](NC(=O)[C@H](Cc1ccccc1)NC(=O)[C@H](CCC(=O)O)NC(=O)[C@H](CCCCN)NC(=O)C(C)(C)NC(=O)[C@H](CCCCN)NC(=O)[C@H](CCC(=O)O)NC(=O)[C@@H](NC(=O)[C@H](CC(C)C)NC(=O)[C@H](Cc1c[nH]c2ccccc12)NC(=O)[C@H](CCC(N)=O)NC(=O)[C@@H](NC(=O)[C@H](Cc1ccccc1)NC(=O)[C@H](CCC(=O)O)NC(=O)[C@H](CCCCN)NC(=O)[C@@H](NC(=O)[C@H](C)NC(=O)[C@H](CCC(=O)O)NC(=O)CNC(=O)[C@H](CCC(=O)O)NC(=O)[C@H](CC(C)C)NC(=O)[C@H](Cc1ccc(O)cc1)NC(=O)[C@H](CO)NC(=O)[C@H](CO)NC(=O)[C@@H](NC(=O)[C@H](CC(=O)O)NC(=O)[C@H](CO)NC(=O)[C@@H](NC(=O)[C@H](Cc1ccccc1)NC(=O)[C@@H](NC(=O)CNC(=O)[C@H](CCC(=O)O)NC(=O)C(C)(C)NC(=O)[C@@H](N)Cc1c[nH]cn1)[C@@H](C)O)[C@@H](C)O)C(C)C)C(C)C)C(C)C)C(C)C)C(N)=O
B3: [Ala2,Glu21,Lys29,Val30,Leu31,Glu32,Phe33,Leu34]-Exendin-4-(1-34)-peptide amide (peptide)
peptide: HAEGTFTSDLSKQMEEEAVREFIEWLKNKVLEFL-NH2
B4: [Aib8,Glu23,Lys24,Val25,Glu34,Aib36,Lys37]-GLP-1-(7-37)-peptidyl-Glu-Phe-Leu amide (peptide)
peptide: H[Aib]EGTFTSDVSSYLEGEKVKEFIAWLVEG[Aib]KEFL-NH2
modifications: N-terminus assumed
SMILES: CC[C@H](C)[C@H](NC(=O)[C@H](Cc1ccccc1)NC(=O)[C@H](CCC(=O)O)NC(=O)[C@H](CCCCN)NC(=O)[C@@H](NC(=O)[C@H](CCCCN)NC(=O)[C@H](CCC(=O)O)NC(=O)CNC(=O)[C@H](CCC(=O)O)NC(=O)[C@H](CC(C)C)NC(=O)[C@H](Cc1ccc(O)cc1)NC(=O)[C@H](CO)NC(=O)[C@H](CO)NC(=O)[C@@H](NC(=O)[C@H](CC(=O)O)NC(=O)[C@H](CO)NC(=O)[C@@H](NC(=O)[C@H](Cc1ccccc1)NC(=O)[C@@H](NC(=O)CNC(=O)[C@H](CCC(=O)O)NC(=O)C(C)(C)NC(=O)[C@@H](N)Cc1c[nH]cn1)[C@@H](C)O)[C@@H](C)O)C(C)C)C(C)C)C(=O)N[C@@H](C)C(=O)N[C@@H](Cc1c[nH]c2ccccc12)C(=O)N[C@@H](CC(C)C)C(=O)N[C@H](C(=O)N[C@@H](CCC(=O)O)C(=O)NCC(=O)NC(C)(C)C(=O)N[C@@H](CCCCN)C(=O)N[C@@H](CCC(=O)O)C(=O)N[C@@H](Cc1ccccc1)C(=O)N[C@@H](CC(C)C)C(N)=O)C(C)C
B5: [Ala2,Lys17,Ala18,Arg20,Glu21,Leu27,Glu28,Lys29]-Glucagonyl-(1-29)-Val-Lys-Glu-Phe-Leu amide (peptide)
peptide: HAQGTFTSDYSKYLDSKAAREFVQWLLEKVKEFL-NH2

Target: human GLP-1 receptor (human, UniProt P43220)
Assay: cell-based or functional assay

Row | Binder | CRE luciferase EC50, 0% HSA [pM] | CRE luciferase EC50, 1% HSA [pM]
1 | B1 | 440 | 171
2 | B2 | 126 | 37
3 | B3 | 31 | 20
4 | B4 | 461 | 111
5 | B5 | 971 | 231
